Measured values: publication PMC6051998, “Steric interference from intrinsically disordered regions controls dynamin-related protein 1 self-assembly during mitochondrial fission” (Scientific Reports, 2018)
“And” between values parts separate entries of the source, which are not always exact repeats. Equal entries are not always repeated.

B1: Drp1ΔVD (Δ514–602) (natural protein, human, UniProt O00429-4 1-699, looked up)
chain: MEALIPVINKLQDVFNTVGADIIQLPQIVVVGTQSSGKSSVLESLVGRDLLPRGTGIVTRRPLILQLVHVSQEDKRKTTGEENGVEAEEWGKFLHTKNKLYTDFDEIRQEIENETERISGNNKGVSPEPIHLKIFSPNVVNLTLVDLPGMTKVPVGDQPKDIELQIRELILRFISNPNSIILAVTAANTDMATSEALKISREVDPDGRRTLAVITKLDLMDAGTDAMDVLMGRVIPVKLGIIGVVNRSQLDINNKKSVTDSIRDEYAFLQKKYPSLANRNGTKYLARTLNRLLMHHIRDCLPELKTRINVLAAQYQSLLNSYGEPVDDKSATLLQLITKFATEYCNTIEGTAKYIETSELCGGARICYIFHETFGRTLESVDPLGGLNTIDILTAIRNATGPRPALFVPEVSFELLVKRQIKRLEEPSLRCVELVHEEMQRIIQHCSNYSTQELLRFPKLHDAIVEVVTCLLRKRLPVTNEMVHNLVAIELAYINTKHPDFADACGLMNNNIEEQRDCEVIERLIKSYFLIVRKNIQDSVPKAVMHFLVNHVKDTLQSELVGQLYKSSLLDDLLTESEDMAQRRKEAADMLKALQGASQIIAEIRETHLW
notes: dynamin-related protein 1 (Drp1), human, with the variable domain deleted (Δ514–602); ~70 kDa monomer; source: E. coli BL21 Star (DE3), purified
B2: Drp1 R247A (full-length) (natural protein, human, UniProt O00429-4 1-699, looked up)
chain: MEALIPVINKLQDVFNTVGADIIQLPQIVVVGTQSSGKSSVLESLVGRDLLPRGTGIVTRRPLILQLVHVSQEDKRKTTGEENGVEAEEWGKFLHTKNKLYTDFDEIRQEIENETERISGNNKGVSPEPIHLKIFSPNVVNLTLVDLPGMTKVPVGDQPKDIELQIRELILRFISNPNSIILAVTAANTDMATSEALKISREVDPDGRRTLAVITKLDLMDAGTDAMDVLMGRVIPVKLGIIGVVNASQLDINNKKSVTDSIRDEYAFLQKKYPSLANRNGTKYLARTLNRLLMHHIRDCLPELKTRINVLAAQYQSLLNSYGEPVDDKSATLLQLITKFATEYCNTIEGTAKYIETSELCGGARICYIFHETFGRTLESVDPLGGLNTIDILTAIRNATGPRPALFVPEVSFELLVKRQIKRLEEPSLRCVELVHEEMQRIIQHCSNYSTQELLRFPKLHDAIVEVVTCLLRKRLPVTNEMVHNLVAIELAYINTKHPDFADACGLMNNNIEEQRRNRLARELPSAVSRDKVASGGGGVGDGVQEPTTGNWRGMLKTSKAEELLAEEKSKPIPIMPASPQKGHAVNLLDVPVPVARKLSAREQRDCEVIERLIKSYFLIVRKNIQDSVPKAVMHFLVNHVKDTLQSELVGQLYKSSLLDDLLTESEDMAQRRKEAADMLKALQGASQIIAEIRETHLW
notes: dynamin-related protein 1 (Drp1), human, full length, with R247A in the GTPase domain; source: E. coli BL21 Star (DE3), purified
B3: Drp1 G350D (full-length stalk L1N mutant) (natural protein, human, UniProt O00429-4 1-699, looked up)
chain: MEALIPVINKLQDVFNTVGADIIQLPQIVVVGTQSSGKSSVLESLVGRDLLPRGTGIVTRRPLILQLVHVSQEDKRKTTGEENGVEAEEWGKFLHTKNKLYTDFDEIRQEIENETERISGNNKGVSPEPIHLKIFSPNVVNLTLVDLPGMTKVPVGDQPKDIELQIRELILRFISNPNSIILAVTAANTDMATSEALKISREVDPDGRRTLAVITKLDLMDAGTDAMDVLMGRVIPVKLGIIGVVNRSQLDINNKKSVTDSIRDEYAFLQKKYPSLANRNGTKYLARTLNRLLMHHIRDCLPELKTRINVLAAQYQSLLNSYGEPVDDKSATLLQLITKFATEYCNTIEDTAKYIETSELCGGARICYIFHETFGRTLESVDPLGGLNTIDILTAIRNATGPRPALFVPEVSFELLVKRQIKRLEEPSLRCVELVHEEMQRIIQHCSNYSTQELLRFPKLHDAIVEVVTCLLRKRLPVTNEMVHNLVAIELAYINTKHPDFADACGLMNNNIEEQRRNRLARELPSAVSRDKVASGGGGVGDGVQEPTTGNWRGMLKTSKAEELLAEEKSKPIPIMPASPQKGHAVNLLDVPVPVARKLSAREQRDCEVIERLIKSYFLIVRKNIQDSVPKAVMHFLVNHVKDTLQSELVGQLYKSSLLDDLLTESEDMAQRRKEAADMLKALQGASQIIAEIRETHLW
notes: dynamin-related protein 1 (Drp1), human, short isoform (isoform 3, 699 a.a.) with G350D; source: E. coli BL21 Star (DE3), purified
B4: full-length Drp1 WT (Drp1 short; human isoform 3; 699 a.a.) (natural protein, UniProt O00429-4 1-699, looked up)
chain: MEALIPVINKLQDVFNTVGADIIQLPQIVVVGTQSSGKSSVLESLVGRDLLPRGTGIVTRRPLILQLVHVSQEDKRKTTGEENGVEAEEWGKFLHTKNKLYTDFDEIRQEIENETERISGNNKGVSPEPIHLKIFSPNVVNLTLVDLPGMTKVPVGDQPKDIELQIRELILRFISNPNSIILAVTAANTDMATSEALKISREVDPDGRRTLAVITKLDLMDAGTDAMDVLMGRVIPVKLGIIGVVNRSQLDINNKKSVTDSIRDEYAFLQKKYPSLANRNGTKYLARTLNRLLMHHIRDCLPELKTRINVLAAQYQSLLNSYGEPVDDKSATLLQLITKFATEYCNTIEGTAKYIETSELCGGARICYIFHETFGRTLESVDPLGGLNTIDILTAIRNATGPRPALFVPEVSFELLVKRQIKRLEEPSLRCVELVHEEMQRIIQHCSNYSTQELLRFPKLHDAIVEVVTCLLRKRLPVTNEMVHNLVAIELAYINTKHPDFADACGLMNNNIEEQRRNRLARELPSAVSRDKVASGGGGVGDGVQEPTTGNWRGMLKTSKAEELLAEEKSKPIPIMPASPQKGHAVNLLDVPVPVARKLSAREQRDCEVIERLIKSYFLIVRKNIQDSVPKAVMHFLVNHVKDTLQSELVGQLYKSSLLDDLLTESEDMAQRRKEAADMLKALQGASQIIAEIRETHLW
notes: dynamin-related protein 1 (Drp1), human, short isoform; human isoform 3; 699 a.a; also called Drp1-short-80-loop; dynamin-related protein 1; source: E. coli BL21 Star (DE3), purified

What was measured:
[1] = target: the molecule itself; test: SEC-MALS; included (soluble) fraction of Drp1ΔVD loaded at 6 μM onto Superose 6 10/300 GL
[2] = target: full-length Mff (mitochondrial fission factor), reconstituted in CL-free nanotubes or liposomes; test: cell-based or functional assay
[3] = target: the molecule itself; test: SEC-MALS; full-length Drp1 WT and mutants, nucleotide-free, each loaded at 10 μM in 500 μl onto Superose 6 10/300 GL in Buffer A (20 mM HEPES pH 7.5, 150 mM KCl) with 1 mM DTT

Binder | stoichiometry N [1] | Mff-stimulated GTPase activity on NT compared to Drp1 WT [2] | stoichiometry N [3]
B1 | 4 |  | 
B2 |  | 3 fold | 2 and 4
B3 |  |  | 2
B4 |  |  | 4 and 2
